The values that follow come from the DeepSol protein solubility set.

A short description of this data set: soluble on expression in E. coli; label from the status in PepcDB or PDB records.
As to “MSLEDSEQIQILQHLISINSVNDHEADVAAYIQQLFADHGITSQVIPYADGRANIIAEIGDTTSDQVFALAGHLDTVATGDVADWKFDPFSAHIVDNQLYGRGAADMKSGLAAMVITLINLADQQTPLTGRLRFIGTVGEENGAMGSRMLTEKGVADDLTAMVIGEPTGGNLVYAHNGSLNYHVYSRGVGAHSSMPEKGINAITNLIKYVTAEATAFDDAPVSPELGPLVHSVTVFNGGEQVNSIPAKAELQGNIRPIPEFDNTAVIHRLHETVDRLNQEPGVDLALHVDYSFKPIISAKDSPLVQTTKAIADQEFGHAIDLQVIHGATDASEFTKSSHDFPVIVYGAGKWDAAHALNESVDLDEFRHVQHVYQQLVEKFLSEGHHHHHH”, the “soluble on expression in E. coli” value is given as “soluble”.

Turning to “MAHHHHHHMAQEISNLVKKYNVTWQQTMLRIYDPKETVEFYEKNFGMINIHTYHFNEYNFSLYFLITPPYDEEERKKLPEPNTKESEKYLWNLNTVCLELTYNHNSQEKLSNGNNENDRGFGHIAFNCNDVIEQCDNLFKKNVKFHKLPHETKMKTIGFALDPNNYWIEIVKRSNQVKWKNYKNITNFSQTMIRVKNPEKSLYFYIHILGMKLIHVKHCSDFSLYFLKSNYACAENNKEMIEDQSNKNTNEIYDFNSLKNSYQTDEDYENFKQSWEPVLELTHNHGTEDDDNFSYHNGNTEPRGFGHIGFLVNDLENYCKELETLNVTFKKKVTEGLMKNIAFIYDPDNYVIELIQRDTSFIAK”, the “soluble on expression in E. coli” value is “soluble”.

As to “MGHHHHHHSHMNFIKDNSRALIQRMGMTVIKQITDDLFVWNVLNREEVNIICCEKVEQDAARGIIHMILKKGSESCNLFLKSLKEWNYPLFQDLNGQSLFHQ”, the “soluble on expression in E. coli” value is given as “not soluble”.

As to “MGSDKIHHHHHHMLRDLVYPPGCATCGLPVAKAGSLCSDCWCSVRFIERPYCEILGLPFGFDPGQGMVCAEAIANPPVFDRLRAAVVHDGAARDLVHRLKYGDRTDLAPMMAHWMIRAGGQELLRADAILPVPLHRWRLFSRQYNQSAELGRALAGLSDKPFLPGVLTRVKRTQKQVGLTEKARADNVRGAFKVAENRRDQVFGRHLVLVDDVYTTGATVSAATRALKRAGAVEVTVLTFAMALVTPI”, the “soluble on expression in E. coli” value is “not soluble”.

For “MKIHPTAIIDPKAELHESVEVGPYSIIEGNVSIQEGTIIEGHVKICAGSEIGKFNRFHQGAVIGVMPQDLGFNQQLLTKTVIGDHNIFREYSNIHKGTKEDSPTVIGNKNYFMGNSHVGHDCILGNNNILTHGAVLAGHVTLGNFAFISGLVAVHQFCFVGDYSMVAGLAKVVQDVPPYSTVDGNPSTVVGLNSVGMKRAGFSPEVRNAIKHAYKVIYHSGISTRKALDELEASGNLIEQVKYIIKFFRDSDRGVTNHR”, the “soluble on expression in E. coli” value was “soluble”.

For the sequence “MGHHHHHHSHMTIYDQHMHTLYSFDSEAQLRDYLTQTKAPVVTTEHLEFDNPDDGGRDNLPDYARMKATQAALAEKFPNEFLLGIEAGYFAPADARFRQYLDNHDFDLTLLSFHHDGHYDYLDEQLITMPAKQQLEDYFERMLAGLKRFHDADVLAHFDYALRRFDITPDQLEAWGKPLLDQIFTIAVENDLALELNTKSMYRWGNAPLYDQAIAWYQAAGGHLFTIGSDAHEGPQYEANFADALAMLKRHGVKEIATYRQHQRTMVPIEPPVIDADNAY”, the “soluble on expression in E. coli” value was “soluble”.

In the case of “MSDESNPPKVILLVEDSKADSRLVQEVLKTSTIDHELIILRDGLAAMAFLQQQGEYENSPRPNLILLDLNLPKKDGREVLAEIKQNPDLKRIPVVVLTTSHNEDDVIASYELHVNCYLTKSRNLKDLFKMVQGIESFWLETVTLPAAPG”, the “soluble on expression in E. coli” value is recorded as “soluble”.

Regarding “MSGDIPLHQLQPNMNSFSVTVIVLDPGIHRRTQTGTIISMKVADASGSINASIMNPEFNETFKPGDILKFRGAYTSIYQGGLTLSVGKSGECKKVGEFMMVFSETPDISMMPLPAGVMDRRNERMQSPAGRYSRPSN”, the “soluble on expression in E. coli” value is reported as “not soluble”.

As to “MSDSPDSPPDAEPSIAARIAAVLPSLTPIHRRMGEYVLANPFRAATMRIDELANAVDASIATANRFARALGFDGYPALRAALVRGFEATLAPVERLRSAQEHEAGARGGELIDASFEQAL”, the “soluble on expression in E. coli” value is recorded as “not soluble”.

As for “MPLTFAHSFADAVPSLSVPWRAEQWPDPRIIVFNHELGQELGIDEASLLSNITQQGHAQAYSGHQFGQFNPLLGDGRALVLGDCAQTNAPHGQFEISLKGSGPTPFARRGDGRATLGPMLREYLISEALHGLGIPTTRSLAVITTGTDVQRERLLPGAVVVRVAQNHLRVGSVQCAAMRDDDSLAALVRYALSSHEDGVSDAEAAGLLLRRVSTSQAKLVAQWMRFGFVHGVMNTDNVTLSGQTIDFGPCAFIDSFHPQAVFSSIDSHGRYSFGRQPSIMGWNIARLAEALLPLMSIDEARNIVHEFPDMYRRSWLDEMADAVGISPDDDHAAGVLDDLVALLDVHRPDYAQFMRSLSDGTTVSLFPWAQQWEAEVSSLRVAAPRNPVYVPRNYLVEDALEHAMNADMSVFSLLVEAGKNPYLREKRFEKLENPAPETWQDYVTYCGT”, the “soluble on expression in E. coli” value is “not soluble”.

Take “MDPFDEIVIKNYLSFPLVLQKLLSIKKLRRIEFFSQNMATHIVFDELGMTTKGFRPDKEVEKLLLKLELIDKRIERTLFRQKHFERFWATLKPLEQQLLIRRFKYKEEVNCPHRLIESVLDEIEEIETAICLMENIELEENELSDDVEENLERMCDFFAL”: the “soluble on expression in E. coli” value is “not soluble”.

With “MFGNYISTSPEKIIMLALRIMQGIAKTLAEHVLDLKHSPLSKQAMKRQTLRLWAEYSLGTINKIIDMKSGPSNQSAEEMEFIRRLILIRRDIHSQLHSVGIDINDGTGD”, the “soluble on expression in E. coli” value was “not soluble”.

Regarding “MGSDKIHHHHHHMPDLTTAPDAEILMAQPRGFCAGVDRAIEIVERALTRFGAPIYVRHEIVHNAYVVADLRRKGAVFVRELDEVPAGATVIFSAHGVSKDVRAEAASRGLNVFDATCPLVTKVHVEVGKMRAEGCEIVMIGHRGHPEVEGTMGQAEGGMLLVESVADVAGLVVADPARLAYVTQTTLSVDETLEIVAALKARFPLIREPKKQDICYATQNRQDAVKFMAPQVDVVIVVGSPNSSNSNRLRELAARLGVPAYMVDAPDQVHPEWVAGKRRIGLTAGASAPEELAQSIVARLRELGAGHVRALAGIEENMAFPLPRGLQAAATVGVTA”, the “soluble on expression in E. coli” value is “not soluble”.

Take “MSLKGIVEKSVGDLETLAFDGRTYIEYLNAVTESEKALQSNHFELSLRTEATQGLVLWIGKVGERADYMALAIVDGHLQLSYDLGSQPVVLRSTVKVNTNRWLRVRAHREHREGSLQVGNEAQVTGSSPLGATQLDTDGALWLGGMQKLPVGQALPKAYGTGFVGCLRDVVVGHRQLHLLEDAVTKPELRPCPTEGHHHHHH”: the “soluble on expression in E. coli” value is on record as “soluble”.

Take “RETFNYMLPGAGVRGAAMARTAGRWGERVVSHNATFKLLTDLRIFFFKKLAPLIPGRVSTMRDADLLNRLVADVDAMDHVYLR”: the “soluble on expression in E. coli” value was “not soluble”.

As to “MGSDKIHHHHHHMTTINAANAGTYAFDDQFKVNRMGYGVMQLTGPGTWGPYADPENGVKVVKKALEYGVNFFDTADSYGPWFADRYLAAGLKDAANRDQIFISDKVGQTRQGPNVWTPLGEPRYLRQQVEVSMMTLGIDHEDLVFLHRIDPHYSIADQVGELKKLQDEGKIKHIGLSQVTVDQIKEAQQVAKIDAIENLYNVANHGDDDVVDYAASQKMAFLPWFPLATGELAQAGSVLSTMAQKYQVSPAQIALAWLLKRSDNIIPIPGTSSIEHLRDNVAAANVDLTTADFNGLSQLSVK”, the “soluble on expression in E. coli” value was “not soluble”.

On to “MTTHSAHLLRRLNPYCAQALAGAATLCQTRAHAEITVEHWLLKLLEQGEGDITVIARRYEWDMDSLWQGLLSHLDTLPRTVQGKPQLSAALQQLIKNAWLDASLQENADAVRSVHLMAALIATPSLLVAEAAWPLLSLSTTQLQRLLPLLDNQSDERPEVQQAAALADSPVNLTDEAATVTSASGQPQLNDALQAALDKFTLDVTAKARANQIDPIFGRDSEIRQMIDILSRRRKNNPILVGEPGVGKTALVEGLALRIADGNVPDSLKTVSVRTLDLGLLQAGAGVKGEFEQRLKNVIEAVQQSPSPVLLFIDEAHTIIGAGNQAGGADAANLLKPALARGELRTIAATTWSEYKQYFERDAALERRFQMVKVDEPDDDTACLMLRGLKERYATHHGVHILDAAITAAVTLSRRFLTGRQLPDKAVDLLDTAGARVRMSIDTLPTALMEINAELAALAMEQQAIEQDLLLLPNVSSTRLPEIEQRRAALAVGQHTLEQQYKEEKRLTTLIIEARQDIANAAHLVALQEELVQIQGNAPLLSLDVDVRTVAAVIADWTGVPLGSLLKDEQTNLLSLENRLGERVIGQDAALGALAQRLRAAKTGLTSENGPLGVFLLVGPSGIGKTETALALADSLFGGEKSLITINLSEYQEAHTVSQLKGSPPGYVGYGQGGVLTEAVRKRPYSVVLLDEVEKAHRDVLNLFYQVFDRGFMRDGEGREIDFRNTVIVMTANLGSDHLMQLLDEQPDAPDSTLHELLRPILRDHFQPALLARFQTLIYRPLQVDALKRIVAIKLNQVAQRLHCHYGLSCQIEDSLTDTLVAACLLPDTGARNIDSLLNQQILPVLSQQLLSRMSEQQRTTSLTLGWHEEDGITLTFEGE”, for which the “soluble on expression in E. coli” value is “not soluble”.

With “METIIHKIRLFDVAQADAFEFWVQNVDYATCPDLPSVVRFDVHRASLQANAPYHYVEVIKITDRAAFDADMETSTFAGLVQAFSRMAEVVEELAGEQLGSGYAAG”, the “soluble on expression in E. coli” value is “soluble”.

For the sequence “MKNFEWNTSFSFAYMNNEVKHLYGEYENVLDANGNIVGSKEKDEYGKWWIGRPISAIWDYRVTGIWQPDEIEEAKKVGQLPGDPKVANNYTEDDIISSDGSRIPVYNDKDKEFLGQTTSPYILSMRNNFTILKNIDFSFNLYSCIGSKMKDTSYLNQVNASEIDYGLNQSIKEYWTPEHQSNTYARLNSKGPTGVNSPARYIDRSFIRLENISIGYTFPKSIVSRWGLSNLKVYGTIRNAALWTMSHWKLNDIETGGLAPRTYSLGINVTL”, the “soluble on expression in E. coli” value is on record as “not soluble”.

On to “MGVPMGNGDCGAEFKCPPNFHKSNRVNGVWCIKVYPGNMTWWEAERECRCTIKGGHLSGIESNSEKRYVEEQTLSILDDKNIKNGAVWLGAYRRKECPSGKVSSDSICHDEKTFQFTDQHTCKTLIFQDWAANQPTNNAGDDCAVLLASTEASGSNSEASGKAAVKNCLHVQGTTPILSSVGFVCGVKAAQEGGNYGGYGGGDFMVIGAAKPKH”, for which the “soluble on expression in E. coli” value is “not soluble”.

For the sequence “MRFTKVVGFLSVLGLAAVFPLTAQAEKAGTAGAGEWDKLGTYTYTYSSPTVYSTGGDFRVCLSGSTPFSVSLHLYEDDPGDNPDDYVGANYFSPGECHTFGSIGKFVDGSNNKAEFFVTDYSGKSKTVTFYDLEHHHHHH”, the “soluble on expression in E. coli” value is listed as “not soluble”.

For “MSLDKRLFLDPDTAIERLQRLQQALEMGVSSLMALVTTDWRCYGYMERHINEIRTAVDKVELFLKEYLHFVKGAVANAACLPELILHNKMKRELQRVEDSHQILSQTSHDLNECSWSLNILAINKPQNKCDDLDRFVMVAKTVPDDAKQLTTTINTNAEALFRPGPGSLHLKNGPESIMNSTEYPHGGSQGQLLHPGDHKAQAHNKALPPGLSKEQAPDCSSSDGSERSWMDDYDYVHLQGKEEFERQQKELLEKENIMKQNKMQLEHHQLSQFQLLEQEITKPVENDISKWKPSQSLPTTNSGVSAQDRQLLCFYYDQCETHFISLLNAIDALFSCVSSAQPPRIFVAHSKFVILSAHKLVFIGDTLTRQVTAQDIRNKVMNSSNQLCEQLKTIVMATKMAALHYPSTTALQEMVHQVTDLSRNAQLFKRSLLEMATEGHHHHHH”, the “soluble on expression in E. coli” value is reported as “soluble”.
